Patent US20230250184A1

Biological target: human CD22 on cells (Daudi, Raji, Nalm.6, K562-CD22) (human) (UniProt P20273)
Assay: flow cytometry on K562.huCD22.Luc cells against parental K562 cells, 4 C 30 min

Sequence of UniProt P20273 (P20273 20-847): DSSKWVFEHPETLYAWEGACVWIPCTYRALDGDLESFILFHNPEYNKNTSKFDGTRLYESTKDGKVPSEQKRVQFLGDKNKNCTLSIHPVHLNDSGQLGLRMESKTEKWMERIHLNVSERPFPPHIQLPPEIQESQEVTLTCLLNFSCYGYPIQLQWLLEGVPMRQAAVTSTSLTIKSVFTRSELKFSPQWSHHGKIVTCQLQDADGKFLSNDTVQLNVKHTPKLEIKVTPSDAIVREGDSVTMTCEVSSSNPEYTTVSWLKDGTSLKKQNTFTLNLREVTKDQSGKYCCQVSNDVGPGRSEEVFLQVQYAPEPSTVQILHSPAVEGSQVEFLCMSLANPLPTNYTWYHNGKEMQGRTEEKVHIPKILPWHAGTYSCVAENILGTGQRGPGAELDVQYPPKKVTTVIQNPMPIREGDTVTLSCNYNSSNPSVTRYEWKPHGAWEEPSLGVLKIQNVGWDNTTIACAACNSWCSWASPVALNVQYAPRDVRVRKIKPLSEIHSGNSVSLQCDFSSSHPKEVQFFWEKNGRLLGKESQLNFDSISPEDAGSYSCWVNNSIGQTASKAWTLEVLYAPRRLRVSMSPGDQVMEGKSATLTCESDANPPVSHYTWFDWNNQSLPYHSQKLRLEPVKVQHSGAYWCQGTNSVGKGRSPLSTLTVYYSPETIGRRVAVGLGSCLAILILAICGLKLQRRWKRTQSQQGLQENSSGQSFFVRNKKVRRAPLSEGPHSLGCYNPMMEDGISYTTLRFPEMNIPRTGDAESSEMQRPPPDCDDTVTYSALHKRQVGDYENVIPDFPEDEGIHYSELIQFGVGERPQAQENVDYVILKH

MFI fold over K562 cells (negative control): 642 fold
Substance: PE conjugated anti-human CD22 antibody (Miltenyi Biotec, Cat. No. 130-105-086)
